Results reported in the supplement of paper PMC7877785.
± gives the uncertainty stated by the source.

Experiment: self-splicing fitness, log relative to wild type (ln ratio); higher = more splicing; Tetrahymena group I intron in knt gene, E. coli kanamycin selection, DiMSum; sequences stand for … in CUCUCU…GGAGGGAAAAGUUAUCAGGCAUGCACCUGGUAGCUAGUCUUUAAACCAAUAGAUUGCAUCGGUUUAAAAGGCAAGACCGUCAAAUUGCGGGAAAGGGGUCAACAGCCGUUCAGUACCAAGUCUCAGGGGAAACUUUGAGAUGGCCUUGCAAAGGGUAUGGUAAUAAGCUGACGGACAUGGUCCUAACCACGCAGCCAAGUCCUAAGUCAACAGAUCUUCUGUUGAUAUGGAUGCAGUUCACAGACUAAAUGUCGGUCGGGGAAGAUGUAUUCUUCUCAUAAGAUAUAGUCGGACCUCUCCUUAAUGGGAGCUAGCGGAUGAAGUGAUGCAACACUGGAGCCGCUGGGAACUAAUUUGUAUGCGAAAGUAUAUUGAUUAGUUUUGGAGUACUCGUGGUCG
How it was run: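 The eight P1ex-region nucleotides of an intron in the knt kanamycin-resistance gene on pET-22b(+) were all randomised and the library put into E. coli BL21(DE3). Six replicate transformations were grown overnight at 37°C or 30°C on LB agar with or without 25 μg/mL kanamycin, together with 100 μg/mL carbenicillin, 50 μM IPTG and 0.2% rhamnose. Colonies were pooled and amplicon-sequenced on an Illumina HiSeq 2500. Fitness from DiMSum is the error-weighted combination of wild-type-normalised replicate fold changes, kanamycin over none.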

Row | Sequence | self-splicing fitness (ln) (30 °C) | self-splicing fitness (ln) (37 °C)
1 | UUCUAGCAAUAUUACGUUGG | -2.65 ± 0.24 | 
2 | GUAAAGCAAUAUUACGCCCA | 0.335 ± 0.062 | 0.419 ± 0.085
3 | GUACAGCAAUAUUACGAAAA | -1.66 ± 0.19 | -2.31 ± 0.25
4 | CCCAAGCAAUAUUACGUGAA | -3.33 ± 0.14 | -2.13 ± 0.14
5 | GCGUAGCAAUAUUACGCAUA | -3.49 ± 0.2 | -2.17 ± 0.21
6 | AUAGAGCAAUAUUACGAUUA | -2.45 ± 0.21 | -0.158 ± 0.17
7 | AGUUAGCAAUAUUACGUCGU | -2.35 ± 0.14 | -1.05 ± 0.14
8 | CGGUAGCAAUAUUACGAUCG | -2.68 ± 0.22 | -2.27 ± 0.32
9 | GUCGAGCAAUAUUACGGUUA | -2.03 ± 0.49 | 0.142 ± 0.25
10 | UUUGAGCAAUAUUACGCAAA | -2.8 ± 0.25 | -2.25 ± 0.21
11 | AAUCAGCAAUAUUACGUGUC | -0.924 ± 0.053 | -0.319 ± 0.069
12 | CAGAAGCAAUAUUACGAGUU | -3.32 ± 0.34 | -2.47 ± 0.3
13 | AAGUAGCAAUAUUACGAGAG | -3.09 ± 0.22 | -1.05 ± 0.21
14 | ACAAAGCAAUAUUACGAUUA | -1.37 ± 0.11 | -0.593 ± 0.11
15 | CGCUAGCAAUAUUACGCUGA | -2.69 ± 0.2 | -2.26 ± 0.22
16 | AACAAGCAAUAUUACGGCAA | -0.882 ± 0.069 | 0.119 ± 0.077
17 | CCACAGCAAUAUUACGCGAA | -3.53 ± 0.2 | -3.29 ± 0.21
18 | ACGGAGCAAUAUUACGUAUC | -2.75 ± 0.2 | -2.52 ± 0.29
19 | GGGGAGCAAUAUUACGGUAA | -2.05 ± 0.28 | -2.82 ± 0.3
20 | UCGGAGCAAUAUUACGCACU | -3.53 ± 0.25 | -2.23 ± 0.23

Row | Sequence | self-splicing fitness (ln) (30 °C) | self-splicing fitness (ln) (37 °C)
21 | UUAAAGCAAUAUUACGCGCU | -0.179 ± 0.1 | -0.107 ± 0.11
22 | UAGAAGCAAUAUUACGCCAG | -1.3 ± 0.16 | -0.617 ± 0.21
23 | GUGGAGCAAUAUUACGUGGG | -2.28 ± 0.13 | -2.7 ± 0.33
24 | GACGAGCAAUAUUACGUAGU | -2.9 ± 0.26 | -1.88 ± 0.3
25 | UACGAGCAAUAUUACGCGCU |  | -3.38 ± 0.31
26 | GAUUAGCAAUAUUACGACCA | -0.409 ± 0.23 | -0.295 ± 0.34
27 | GAUUAGCAAUAUUACGUAAA | -2.19 ± 0.15 | -0.793 ± 0.19
28 | CCGGAGCAAUAUUACGAAUG | -1.1 ± 0.074 | 0.21 ± 0.097
29 | GUUAAGCAAUAUUACGACCC |  | -0.221 ± 0.44
30 | ACGCAGCAAUAUUACGCAGU | -3.29 ± 0.16 | -2.78 ± 0.21
31 | GUACAGCAAUAUUACGAUCU | -0.934 ± 0.087 | -0.527 ± 0.094
32 | GAAUAGCAAUAUUACGCACU | -0.269 ± 0.089 | 0.18 ± 0.11
33 | UAGAAGCAAUAUUACGGCUA | -0.274 ± 0.12 | -0.13 ± 0.16
34 | GCCGAGCAAUAUUACGGCAG | -3.94 ± 0.29 | -2.61 ± 0.33
35 | GAAGAGCAAUAUUACGUGCA | -2.38 ± 0.18 | -1.24 ± 0.2
36 | UUACAGCAAUAUUACGUCGA | -0.899 ± 0.087 | 0.0863 ± 0.093
37 | GUCAAGCAAUAUUACGACCG | -3.14 ± 0.42 | 
38 | GUUCAGCAAUAUUACGCUCU | -0.149 ± 0.09 | 0.0537 ± 0.097
39 | UACAAGCAAUAUUACGCAUU | -3.38 ± 0.19 | -1.63 ± 0.16
